The values below come from publication PMC12083921.

Assay [1] concerns the target AKAP79^FAAF, mRFP-tagged (human) (human) (UniProt P24588). Nature of the assay: FRAP.
Assay [2] addresses AKAP79, mRFP-tagged, full length (human) (human) (UniProt P24588). Kind of assay: FRAP.
In assay [3] the target is AKAP150, mRFP-tagged (rat) (rat) (UniProt P24587). Kind of assay: FRAP.
The target of assay [4] is AKAP79^FAAF, GFP-tagged, full length (human) (human) (UniProt P24588). Nature of the assay: co-IP.
The target of assay [5] is AKAP79^AF, GFP-tagged, full length (human) (human) (UniProt P24588). Nature of the assay: co-IP.
Assay [6] concerns the target AKAP79^FA, GFP-tagged, full length (human) (human) (UniProt P24588). Nature of the assay: co-IP.

UniProt P24587, sequence (P24587 whole entry): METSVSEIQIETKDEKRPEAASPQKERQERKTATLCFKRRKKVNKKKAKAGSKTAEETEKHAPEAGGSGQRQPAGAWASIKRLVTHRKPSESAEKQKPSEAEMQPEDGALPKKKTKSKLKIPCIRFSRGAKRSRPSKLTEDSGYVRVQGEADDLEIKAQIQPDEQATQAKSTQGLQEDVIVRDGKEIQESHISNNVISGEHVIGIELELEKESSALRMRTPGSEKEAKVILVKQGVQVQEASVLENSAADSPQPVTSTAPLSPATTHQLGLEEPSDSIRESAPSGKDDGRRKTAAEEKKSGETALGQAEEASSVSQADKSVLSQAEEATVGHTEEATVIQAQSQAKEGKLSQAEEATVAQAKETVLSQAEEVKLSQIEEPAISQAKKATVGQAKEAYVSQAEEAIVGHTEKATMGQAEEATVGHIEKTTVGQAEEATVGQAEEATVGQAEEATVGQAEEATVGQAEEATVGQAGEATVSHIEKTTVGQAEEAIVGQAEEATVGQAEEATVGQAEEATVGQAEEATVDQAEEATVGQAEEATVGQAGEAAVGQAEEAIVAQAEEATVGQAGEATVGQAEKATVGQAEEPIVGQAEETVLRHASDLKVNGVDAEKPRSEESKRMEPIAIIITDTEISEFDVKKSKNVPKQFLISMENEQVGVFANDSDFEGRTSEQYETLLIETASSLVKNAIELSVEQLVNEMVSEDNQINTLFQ

In the case of “PKA type II regulatory subunit alpha, iRFP-tagged (RII-iRFP) (from UniProt P13861 1-404) (natural protein)”, the FRAP recovery half-time in assay [1] turned out to be 11.4 s; in assay [2], 14.4 s; in assay [3], 12.3 s. In addition, the FRAP recovery rate constant came to 0.062 s⁻¹ in assay [1], 0.049 s⁻¹ in assay [2] and 0.057 s⁻¹ in assay [3].

“PKA type I regulatory subunit alpha (RIα), endogenous (from UniProt P10644 1-381) (natural protein)”: the fold RI band intensity over controls in assay [4] stood at 3.55 fold.

As for “PKA type II regulatory subunit alpha (RIIα), endogenous (from UniProt P13861 1-404) (natural protein)”, the percent decrease of RII binding against WT AKAP79 in assay [5] amounted to 22%; in assay [6], 45%; in assay [4] it was 45%.

In assay [1], “PKA type I regulatory subunit alpha, iRFP-tagged (RI-iRFP) (from UniProt P10644 1-381) (natural protein)” registered an FRAP recovery half-time of 20.5 s and an FRAP recovery rate constant of 0.034 s⁻¹. In assay [2], this substance registered an FRAP recovery half-time of 8.74 s and an FRAP recovery rate constant of 0.079 s⁻¹.
